Consider 14 substances from US8209131.

The assay concerns the target IL-4 receptor alpha (IL-4Ra) (UniProt P24394). Put plainly: cell-based or functional assay.

Sequence of IL-4 receptor alpha (IL-4Ra) (P24394 26-825 limits assumed): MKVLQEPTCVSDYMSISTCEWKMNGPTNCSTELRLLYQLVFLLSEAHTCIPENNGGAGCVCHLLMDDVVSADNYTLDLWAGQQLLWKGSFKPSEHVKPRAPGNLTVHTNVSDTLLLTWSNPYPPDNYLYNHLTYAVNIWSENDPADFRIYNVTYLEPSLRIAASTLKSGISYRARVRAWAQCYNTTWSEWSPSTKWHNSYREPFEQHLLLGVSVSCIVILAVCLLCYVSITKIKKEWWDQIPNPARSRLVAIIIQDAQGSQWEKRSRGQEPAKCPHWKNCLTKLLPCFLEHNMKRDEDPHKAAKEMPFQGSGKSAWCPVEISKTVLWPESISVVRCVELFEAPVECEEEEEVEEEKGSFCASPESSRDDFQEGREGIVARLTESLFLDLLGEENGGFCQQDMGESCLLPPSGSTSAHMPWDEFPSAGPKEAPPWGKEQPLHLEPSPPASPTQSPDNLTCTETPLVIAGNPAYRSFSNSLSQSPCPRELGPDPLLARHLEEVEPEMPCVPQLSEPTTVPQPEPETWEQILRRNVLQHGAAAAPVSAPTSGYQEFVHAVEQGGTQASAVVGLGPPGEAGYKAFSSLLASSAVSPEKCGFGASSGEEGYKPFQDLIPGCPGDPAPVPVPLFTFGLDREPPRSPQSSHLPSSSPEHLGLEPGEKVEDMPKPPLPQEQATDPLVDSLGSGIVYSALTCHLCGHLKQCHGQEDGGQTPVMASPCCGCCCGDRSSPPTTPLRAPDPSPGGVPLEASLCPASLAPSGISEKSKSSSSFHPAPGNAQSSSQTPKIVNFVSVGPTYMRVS

Take “IL-4 mutant R88V (from UniProt P05112 25-153) (ligand)”: the Conc needed for 50% growth (TF1.8 Bioassay), average was 415 ng/mL.

Regarding “IL-4 mutant R53A (from UniProt P05112 25-153) (ligand)”, the Conc needed for 50% growth (TF1.8 Bioassay), average was 9.39 ng/mL. As for “IL-4 mutant R81A (from UniProt P05112 25-153) (ligand)”, the figure is 4.85 ng/mL.

Take “IL-4 mutant K84A (from UniProt P05112 25-153) (ligand)”: the Conc needed for 50% growth (TF1.8 Bioassay), average was found to be 2.95 ng/mL.

In turn, “IL-4 mutant K12A (from UniProt P05112 25-153) (ligand)” came in with a Conc needed for 50% growth (TF1.8 Bioassay), average of 0.6 ng/mL.

Regarding “IL-4 mutant K21A (from UniProt P05112 25-153) (ligand)”, the Conc needed for 50% growth (TF1.8 Bioassay), average was determined as 1.36 ng/mL.

In the case of “IL-4 mutant R75A (from UniProt P05112 25-153) (ligand)”, the Conc needed for 50% growth (TF1.8 Bioassay), average is 0.63 ng/mL. Take “IL-4 double mutant K77A/K84A (from UniProt P05112 25-153) (ligand)”: the Conc needed for 50% growth (TF1.8 Bioassay), average turned out to be 1.69 ng/mL.

As for “IL-4 double mutant K77A/R81A (from UniProt P05112 25-153) (ligand)”, the Conc needed for 50% growth (TF1.8 Bioassay), average amounted to 1.65 ng/mL. Next, “IL-4 mutant K77A (from UniProt P05112 25-153) (ligand)”: 1.55 ng/mL; “IL-4 double mutant K77A/R53A (from UniProt P05112 25-153) (ligand)”: 11.3 ng/mL. “IL-4 mutant E9A (from UniProt P05112 25-153) (ligand)” showed a Conc needed for 50% growth (TF1.8 Bioassay), average of 76.1 ng/mL.

“IL-4 mutant R85A (from UniProt P05112 25-153) (ligand)” showed a Conc needed for 50% growth (TF1.8 Bioassay), average of 0.71 ng/mL. Substance “IL-4 mutant K42A (from UniProt P05112 25-153) (ligand)” displayed a Conc needed for 50% growth (TF1.8 Bioassay), average of 0.67 ng/mL.
